# Experimental data as given in patent publication US20210379147A1, “METHOD AND SYSTEM FOR TREATING CANCER UTILIZING TINAGL1” (The Trustees of Princeton University, priority 2018, published 2021).
# B1: Tinagl1: Tubulointerstitial nephritis antigen like 1, secreted extracellular protein; in IP experiments expressed with C-terminal HA tag (protein, listed as Homo sapiens)
# chain: MWRCPLGLLLLLPLAGHLALGAQQGRGRRELAPGLHLRGIRDAGGRYCQEQDLCCRGRADDCALPYLGAICYCDLFCNRTVSDCCPDFWDFCLGVPPPFPPIQGCMHGGRIYPVLGTYWDNCNRCTCQENRQWQCDQEPCLVDPDMIKAINQGNYGWQAGNHSAFWGMTLDEGIRYRLGTIRPSSSVMNMHEIYTVLNPGEVLPTAFEASEKWPNLIHEPLDQGNCAGSWAFSTAAVASDRVSIHSLGHMTPVLSPQNLLSCDTHQQQGCRGGRLDGAWWFLRRRGVVSDHCYPFSGRERDEAGPAPPCMMHSRAMGRGKRQATAHCPNSYVNNNDIYQVTPVYRLGSNDKEIMKELMENGPVQALMEVHEDFFLYKGGIYSHTPVSLGRPERYRRHGTHSVKITGWGEETLPDGRTLKYWTAANSWGPAWGERGHFRIVRGVNECDIESFVLGVWGRVGMEDMGHH
# modifications: C-terminal HA tag in IP
# notes: Tubulointerstitial nephritis antigen like 1, secreted extracellular protein; in IP experiments expressed with C-terminal HA tag
# Columns and labels:
# Integrin β1 = Integrin β1 (Homo sapiens, UniProt P05556); assay: Co-immunoprecipitation of Tinagl1 / Tinagl1 mutants with integrin β1 subunit; assay type: binding; conditions: LM2 cells with Tinagl1-HA stably expressed
# Protocol: (§1) The functional domains of the Tinagl1 protein were mapped against EGFR, Integrin β1, and Integrin α5, and the results can be seen in Table 1, below. Specifically, it can be seen that the signal peptide (11) and Somatomedin B domain (12) are required to interact with EGFR, Integrin, and Integrin.
# (§2) Immunoprecipitation (IP) and western blotting (WB) analysis. For an IP experiment, cells were collected in 1.5 ml EP tube when they reached to 100% confluency in 10 or 15 cm dish as indicated. 1 ml of IP lysis buffer (20 mM Tris pH7.4, 0.15 M NaCl, 1 mM EDTA, 1 mM EGTA, 1% Tx-100) with complete protease inhibitor cocktail (Roche, 14493900) was added and put on ice for 20 min. Meanwhile, culture media was 100× concentrated and mixed with the cell lysates. The samples were centrifuged, 100 μl of the supernatant was transferred to a new tube as input, and the rest was incubated with 2 μg of IgG, anti-HA, anti-Myc, anti-Integrin subunit β1, anti-Integrin subunit α5 or anti-EGFR (as indicated in each experiment) overnight at 4° C. (recombinant proteins may be added at this step as indicated in each experiment). 30 μL of protein A/G agarose beads (Santa Cruz, sc-2003) was then added in each sample for another 2 hours at 4° C. the next day. The beads were then washed for 5 times with IP lysis buffer. […] The IP samples were washed with PBS and analyzed with WB. […]
# FAK = assay: FN- or EGF-dependent FAK phosphorylation (WB); assay type: cell-based
# Text: For WB analysis, cells were collected and lysed with IP lysis buffer described above. After boiled with SDS laemmli buffer, the samples were resolved with SDS-PAGE gel and immunoblotted with standard protocols.
# FN is the major ligand for integrin α5β1 and αvβ1, and triggers integrin/FAK signal pathway after binding. FN was employed to evaluate the effects of Tinagl1 on the integrin/FAK pathway. […] Likewise, the activation of FAK by FN was attenuated in the cells overexpressing Tinagl1.
# Integrin α5 = Integrin α5 (Homo sapiens, UniProt P05556+P08648); assay: Co-immunoprecipitation of Tinagl1 / Tinagl1 mutants with integrin α5 subunit; assay type: binding; conditions: LM2 cells expressing Tinagl1-HA
# Protocol: as §1, §2
# FN = FN (Homo sapiens, UniProt P02751); assay: IP of Tinagl1-HA with FN; assay type: binding; conditions: IP-Mass, IP/WB
# Protocol: FIG. 15B is an image of WB analyses where 5 μg of FN was added into the lysate of HEK293T cells expressing Tinagl1-HA, then the lysate was immunoprecipitated with indicated antibodies, followed by WB analysis.
# integrin av subunit = biological target: T1, integrin av subunit (Homo sapiens, UniProt P05556+P06756); assay: Co-immunoprecipitation of Tinagl1 with integrin av subunit; assay type: binding; conditions: LM2 cells expressing Tinagl1-HA
# T1 construct: endogenous in cells; host or cells: LM2 cells stably expressing Tinagl1-HA
# Protocol: FIGS. 9A and 9B FIGS. 8E and 8F are images of WB analyses where LM2 cells expressing Tinagl1-HA stably were lysed and IP with IgG or anti-HA antibodies, then the IP samples were subjected to WB analysis with indicated antibodies to detect the interaction with integrin α5 subunit (9A) and integrin av subunit (9B).
# as §2
# [1] = test system: FN interaction with integrin subunits β1, α5, and αv; assay: Competition IP between Tinagl1, FN and integrin subunits; assay type: binding
# [2] = biological target: T2, mutant integrin β1 subunit (β1-M) (Homo sapiens, UniProt P05556, DEL130-240); assay: IP of Tinagl1-HA with mutant integrin β1 subunit; assay type: binding; conditions: HEK293T cells
# T2 construct: host or cells: HEK293T
# EGFR = EGFR (Homo sapiens, UniProt P00533); assay: Co-immunoprecipitation of Tinagl1 / Tinagl1 mutants with EGFR; assay type: binding; conditions: LM2 cells with Tinagl1-HA stably expressed
# Protocol: as §1, §2
# EGF = biological target: T3, EGF (Homo sapiens, UniProt P01133); assay: Co-immunoprecipitation of Tinagl1-HA with recombinant EGF; assay type: binding; conditions: 5 μg r-EGF added into lysate
# T3 construct: 5 μg of recombinant EGF (r-EGF) was added into the lysate
# Protocol: FIG. 13A is an image of IP and WB assays where EK293T cells expressing Tinagl1-HA were lysed and 5 μg of recombinant EGF (r-EGF) was added into the lysate, which was then subjected to the assays.
# Tinagl1 inhibits EGFR and integrin/FAK signaling pathways with distinct mechanisms. The interaction between EGFR and EGF causes conformational changes in EGFR, leading to EGFR dimerization, phosphorylation, and activation. Previous studies identified an EGFR antagonist, MIF, which competes with EGF for binding to EGFR and subsequently blocks its activation. Whether Tinagl1 inhibits EGFR activation in a similar manner was tested. […] Whether Tinagl1 and EGF compete with each other to interact with EGFR was tested. […] As a positive control, r-Tinagl1 competed with expressed Tinagl1-HA to interact with EGFR.
# Chain of FN interaction with integrin subunits β1, α5, and αv (as listed by the source): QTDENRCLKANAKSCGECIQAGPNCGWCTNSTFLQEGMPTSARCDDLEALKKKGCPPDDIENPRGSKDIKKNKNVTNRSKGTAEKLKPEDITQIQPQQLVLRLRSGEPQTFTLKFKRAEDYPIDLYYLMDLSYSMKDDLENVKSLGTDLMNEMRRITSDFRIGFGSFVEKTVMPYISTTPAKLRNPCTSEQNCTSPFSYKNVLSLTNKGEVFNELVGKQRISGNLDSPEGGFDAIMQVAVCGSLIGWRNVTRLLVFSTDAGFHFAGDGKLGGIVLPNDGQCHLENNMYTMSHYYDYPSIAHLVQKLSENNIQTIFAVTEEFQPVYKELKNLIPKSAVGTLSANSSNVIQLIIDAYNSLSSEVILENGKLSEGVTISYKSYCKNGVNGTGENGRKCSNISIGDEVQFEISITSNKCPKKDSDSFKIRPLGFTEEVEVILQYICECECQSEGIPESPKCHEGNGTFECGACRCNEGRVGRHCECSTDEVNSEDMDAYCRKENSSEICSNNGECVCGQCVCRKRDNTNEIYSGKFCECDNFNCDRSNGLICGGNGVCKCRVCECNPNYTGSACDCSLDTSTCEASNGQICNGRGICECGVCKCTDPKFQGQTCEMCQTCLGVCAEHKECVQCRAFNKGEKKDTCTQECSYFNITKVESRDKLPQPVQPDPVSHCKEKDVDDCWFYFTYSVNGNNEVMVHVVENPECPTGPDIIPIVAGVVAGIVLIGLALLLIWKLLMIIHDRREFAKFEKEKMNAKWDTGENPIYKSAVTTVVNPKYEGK
# T2 sequence (P05556 with tags, fused parts or gaps DEL130-240): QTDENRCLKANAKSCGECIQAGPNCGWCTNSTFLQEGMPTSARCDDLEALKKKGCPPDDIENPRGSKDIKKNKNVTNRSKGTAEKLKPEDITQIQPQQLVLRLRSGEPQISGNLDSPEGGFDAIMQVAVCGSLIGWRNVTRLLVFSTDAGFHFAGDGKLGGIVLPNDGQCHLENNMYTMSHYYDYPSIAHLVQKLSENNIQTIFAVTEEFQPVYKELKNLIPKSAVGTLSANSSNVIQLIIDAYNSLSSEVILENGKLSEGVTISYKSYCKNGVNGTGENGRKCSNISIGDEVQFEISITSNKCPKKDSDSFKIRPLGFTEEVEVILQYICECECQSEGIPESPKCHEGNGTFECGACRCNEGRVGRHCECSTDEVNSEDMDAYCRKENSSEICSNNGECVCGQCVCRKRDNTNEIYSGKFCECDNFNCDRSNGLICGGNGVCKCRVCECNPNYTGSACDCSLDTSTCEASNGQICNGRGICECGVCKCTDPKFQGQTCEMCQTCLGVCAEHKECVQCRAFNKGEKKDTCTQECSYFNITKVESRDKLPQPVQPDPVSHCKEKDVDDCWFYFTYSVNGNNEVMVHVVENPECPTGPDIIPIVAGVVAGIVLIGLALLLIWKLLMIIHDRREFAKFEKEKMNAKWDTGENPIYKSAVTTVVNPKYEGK
# Chain of Integrin α5 (P08648 42-894 limits assumed): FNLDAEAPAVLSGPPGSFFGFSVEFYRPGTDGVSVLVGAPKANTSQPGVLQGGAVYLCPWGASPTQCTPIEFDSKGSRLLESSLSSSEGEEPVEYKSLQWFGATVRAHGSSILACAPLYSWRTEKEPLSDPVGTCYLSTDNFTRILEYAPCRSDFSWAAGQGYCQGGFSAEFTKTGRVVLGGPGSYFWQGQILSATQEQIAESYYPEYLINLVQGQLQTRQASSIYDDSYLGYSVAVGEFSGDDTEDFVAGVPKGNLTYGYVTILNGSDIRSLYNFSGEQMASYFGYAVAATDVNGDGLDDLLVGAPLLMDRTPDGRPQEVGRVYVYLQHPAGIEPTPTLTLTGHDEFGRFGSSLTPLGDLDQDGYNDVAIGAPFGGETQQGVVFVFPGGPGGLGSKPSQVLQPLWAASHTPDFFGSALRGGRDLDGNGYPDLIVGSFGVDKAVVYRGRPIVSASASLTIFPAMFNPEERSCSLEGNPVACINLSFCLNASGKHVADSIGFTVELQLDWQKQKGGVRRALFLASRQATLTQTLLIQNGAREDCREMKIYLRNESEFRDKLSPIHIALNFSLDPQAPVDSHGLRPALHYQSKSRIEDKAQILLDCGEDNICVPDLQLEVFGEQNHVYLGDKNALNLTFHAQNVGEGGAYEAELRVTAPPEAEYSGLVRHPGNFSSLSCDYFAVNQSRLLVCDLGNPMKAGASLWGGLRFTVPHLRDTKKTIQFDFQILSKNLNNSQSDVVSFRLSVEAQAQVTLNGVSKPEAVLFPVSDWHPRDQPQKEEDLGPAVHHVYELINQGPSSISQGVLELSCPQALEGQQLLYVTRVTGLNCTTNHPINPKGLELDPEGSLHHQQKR
# Chain of Integrin α5 (P08648 895-1049 limits assumed): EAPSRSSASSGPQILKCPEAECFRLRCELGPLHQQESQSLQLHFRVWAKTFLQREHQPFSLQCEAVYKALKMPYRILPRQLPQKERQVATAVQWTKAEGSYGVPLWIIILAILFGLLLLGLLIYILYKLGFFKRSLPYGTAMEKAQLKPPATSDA
# Chain of Integrin α5 (P05556 21-798): as the sequence (as listed by the source) above
# Chain of FN (P02751 32-2477): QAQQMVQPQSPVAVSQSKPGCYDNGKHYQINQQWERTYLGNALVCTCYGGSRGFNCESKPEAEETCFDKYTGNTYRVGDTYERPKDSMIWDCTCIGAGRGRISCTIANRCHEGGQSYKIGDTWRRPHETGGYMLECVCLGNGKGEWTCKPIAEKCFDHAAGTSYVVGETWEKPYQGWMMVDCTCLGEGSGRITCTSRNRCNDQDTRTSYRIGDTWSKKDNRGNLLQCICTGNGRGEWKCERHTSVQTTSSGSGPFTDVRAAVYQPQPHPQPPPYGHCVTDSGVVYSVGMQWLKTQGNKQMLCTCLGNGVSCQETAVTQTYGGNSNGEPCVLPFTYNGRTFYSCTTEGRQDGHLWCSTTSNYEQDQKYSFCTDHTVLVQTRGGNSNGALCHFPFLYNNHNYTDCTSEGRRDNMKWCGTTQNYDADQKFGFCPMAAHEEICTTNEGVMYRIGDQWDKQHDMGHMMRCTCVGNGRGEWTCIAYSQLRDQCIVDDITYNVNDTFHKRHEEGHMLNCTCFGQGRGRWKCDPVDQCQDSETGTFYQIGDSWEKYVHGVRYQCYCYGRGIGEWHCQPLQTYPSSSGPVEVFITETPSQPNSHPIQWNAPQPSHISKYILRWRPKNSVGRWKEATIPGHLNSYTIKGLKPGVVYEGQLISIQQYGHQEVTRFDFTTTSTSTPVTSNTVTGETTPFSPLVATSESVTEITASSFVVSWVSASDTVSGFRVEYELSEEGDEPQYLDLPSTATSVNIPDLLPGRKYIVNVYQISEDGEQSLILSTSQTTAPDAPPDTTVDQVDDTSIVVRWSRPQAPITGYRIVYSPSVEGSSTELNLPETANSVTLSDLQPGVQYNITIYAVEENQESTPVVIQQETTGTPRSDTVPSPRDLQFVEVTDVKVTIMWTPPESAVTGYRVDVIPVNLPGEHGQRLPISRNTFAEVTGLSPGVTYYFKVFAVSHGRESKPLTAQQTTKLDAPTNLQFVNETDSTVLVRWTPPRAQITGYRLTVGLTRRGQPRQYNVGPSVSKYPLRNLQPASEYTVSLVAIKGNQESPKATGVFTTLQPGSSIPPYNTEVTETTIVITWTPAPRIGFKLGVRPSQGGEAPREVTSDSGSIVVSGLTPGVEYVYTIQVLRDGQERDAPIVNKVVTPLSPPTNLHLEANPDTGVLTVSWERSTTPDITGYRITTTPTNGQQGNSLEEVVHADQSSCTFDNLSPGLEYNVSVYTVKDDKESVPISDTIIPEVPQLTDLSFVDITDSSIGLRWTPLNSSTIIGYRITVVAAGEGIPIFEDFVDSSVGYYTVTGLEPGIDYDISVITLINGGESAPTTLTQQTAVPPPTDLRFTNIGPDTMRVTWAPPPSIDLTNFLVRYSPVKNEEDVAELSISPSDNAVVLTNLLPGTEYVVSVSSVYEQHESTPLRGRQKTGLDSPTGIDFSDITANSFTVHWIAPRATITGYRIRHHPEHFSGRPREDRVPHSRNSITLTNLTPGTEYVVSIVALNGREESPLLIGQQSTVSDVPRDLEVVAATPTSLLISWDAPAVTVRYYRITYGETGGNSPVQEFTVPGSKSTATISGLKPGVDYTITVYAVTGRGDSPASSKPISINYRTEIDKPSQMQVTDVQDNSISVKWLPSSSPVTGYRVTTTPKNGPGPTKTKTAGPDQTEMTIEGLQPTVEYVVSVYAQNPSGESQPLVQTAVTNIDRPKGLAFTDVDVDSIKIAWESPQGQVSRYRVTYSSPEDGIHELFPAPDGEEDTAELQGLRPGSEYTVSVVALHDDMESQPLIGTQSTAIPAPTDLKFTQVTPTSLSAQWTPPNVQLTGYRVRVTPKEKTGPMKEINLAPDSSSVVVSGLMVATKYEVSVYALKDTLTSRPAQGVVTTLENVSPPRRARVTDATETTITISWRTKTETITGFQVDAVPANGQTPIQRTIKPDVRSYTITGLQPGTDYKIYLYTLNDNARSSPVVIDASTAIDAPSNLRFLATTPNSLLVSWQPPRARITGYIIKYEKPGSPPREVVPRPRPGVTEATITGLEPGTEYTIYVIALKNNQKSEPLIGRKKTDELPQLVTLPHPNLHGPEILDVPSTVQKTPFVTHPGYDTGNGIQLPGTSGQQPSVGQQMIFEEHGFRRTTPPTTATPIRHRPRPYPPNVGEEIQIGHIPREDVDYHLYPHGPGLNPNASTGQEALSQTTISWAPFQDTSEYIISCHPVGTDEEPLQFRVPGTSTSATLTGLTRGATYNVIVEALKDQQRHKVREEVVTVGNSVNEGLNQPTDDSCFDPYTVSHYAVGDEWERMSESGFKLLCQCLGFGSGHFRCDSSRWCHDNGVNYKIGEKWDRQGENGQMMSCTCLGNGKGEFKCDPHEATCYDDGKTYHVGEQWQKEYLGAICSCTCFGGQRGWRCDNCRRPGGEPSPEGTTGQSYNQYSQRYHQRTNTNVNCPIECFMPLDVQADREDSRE
# T3 sequence (P01133 971-1023 limits assumed, species assumed): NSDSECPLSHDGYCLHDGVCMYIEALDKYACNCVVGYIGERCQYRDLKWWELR
molecule,measurement,setting,value
B1,interaction with integrin β1 subunit (co-IP),Integrin β1,confirmed the interaction
same,EGF-induced FAK phosphorylation (Tyr925),FAK,blocks this specific effect of EGF on FAK activation
same,interaction with integrin α5 subunit (co-IP),Integrin α5,strongly interacted
same,interaction with FN,FN,interacted with FN
same,interaction with integrin av subunit (co-IP),integrin av subunit,strongly interacted
same,interaction of subunits α5 or av with FN,[1],did not compete
same,interaction of FN with integrin β1 subunit,"[1]; tested at 1, 2.5, and 5 μg",competitively reduced
same,interaction with mutant β1 subunit (deletion of aa 130-240),[2],cannot interact
same,interaction with EGFR (co-IP),EGFR,confirmed the interaction
same,interaction between Tinagl1 and EGF,EGF,failed to detect any interaction
